The labels stand for the following.
B1: SPOP D77E, full-length (natural protein)
chain: MSRVPSPPPPAEMSSGPVAESWCYTQIKVVKFSYMWTINNFSFCREEMGEVIKSSTFSSGANDKLKWCLRVNPKGLEEESKDYLSLYLLLVSCPKSEVRAKFKFSILNAKGEETKAMESQRAYRFVQGKDWGFKKFIRRDFLLDEANGLLPDDKLTLFCEVSVVQDSVNISGQNTMNMVKVPECRLADELGGLWENSRFTDCCLCVAGQEFQAHKAILAARSPVFSAMFEHEMEESKKNRVEINDVEPEVFKEMMCFIYTGKAPNLDKMADDLLAAADKYALERLKVMCEDALCSNLSVENAAEILILADLHSADQLKTQAVDFINYHASDVLETSGWKSMVVSHPHLVAEAYRSLASAQCPFLGPPRKRLKQS
B2: SPOP D140N (natural protein)
chain: MSRVPSPPPPAEMSSGPVAESWCYTQIKVVKFSYMWTINNFSFCREEMGEVIKSSTFSSGANDKLKWCLRVNPKGLDEESKDYLSLYLLLVSCPKSEVRAKFKFSILNAKGEETKAMESQRAYRFVQGKDWGFKKFIRRNFLLDEANGLLPDDKLTLFCEVSVVQDSVNISGQNTMNMVKVPECRLADELGGLWENSRFTDCCLCVAGQEFQAHKAILAARSPVFSAMFEHEMEESKKNRVEINDVEPEVFKEMMCFIYTGKAPNLDKMADDLLAAADKYALERLKVMCEDALCSNLSVENAAEILILADLHSADQLKTQAVDFINYHASDVLETSGWKSMVVSHPHLVAEAYRSLASAQCPFLGPPRKRLKQS
B3: SPOP Y87F (natural protein)
chain: MSRVPSPPPPAEMSSGPVAESWCYTQIKVVKFSYMWTINNFSFCREEMGEVIKSSTFSSGANDKLKWCLRVNPKGLDEESKDYLSLFLLLVSCPKSEVRAKFKFSILNAKGEETKAMESQRAYRFVQGKDWGFKKFIRRDFLLDEANGLLPDDKLTLFCEVSVVQDSVNISGQNTMNMVKVPECRLADELGGLWENSRFTDCCLCVAGQEFQAHKAILAARSPVFSAMFEHEMEESKKNRVEINDVEPEVFKEMMCFIYTGKAPNLDKMADDLLAAADKYALERLKVMCEDALCSNLSVENAAEILILADLHSADQLKTQAVDFINYHASDVLETSGWKSMVVSHPHLVAEAYRSLASAQCPFLGPPRKRLKQS
B4: SPOP R99W (natural protein)
chain: MSRVPSPPPPAEMSSGPVAESWCYTQIKVVKFSYMWTINNFSFCREEMGEVIKSSTFSSGANDKLKWCLRVNPKGLDEESKDYLSLYLLLVSCPKSEVWAKFKFSILNAKGEETKAMESQRAYRFVQGKDWGFKKFIRRDFLLDEANGLLPDDKLTLFCEVSVVQDSVNISGQNTMNMVKVPECRLADELGGLWENSRFTDCCLCVAGQEFQAHKAILAARSPVFSAMFEHEMEESKKNRVEINDVEPEVFKEMMCFIYTGKAPNLDKMADDLLAAADKYALERLKVMCEDALCSNLSVENAAEILILADLHSADQLKTQAVDFINYHASDVLETSGWKSMVVSHPHLVAEAYRSLASAQCPFLGPPRKRLKQS
B5: SPOP R121Q (natural protein)
chain: MSRVPSPPPPAEMSSGPVAESWCYTQIKVVKFSYMWTINNFSFCREEMGEVIKSSTFSSGANDKLKWCLRVNPKGLDEESKDYLSLYLLLVSCPKSEVRAKFKFSILNAKGEETKAMESQQAYRFVQGKDWGFKKFIRRDFLLDEANGLLPDDKLTLFCEVSVVQDSVNISGQNTMNMVKVPECRLADELGGLWENSRFTDCCLCVAGQEFQAHKAILAARSPVFSAMFEHEMEESKKNRVEINDVEPEVFKEMMCFIYTGKAPNLDKMADDLLAAADKYALERLKVMCEDALCSNLSVENAAEILILADLHSADQLKTQAVDFINYHASDVLETSGWKSMVVSHPHLVAEAYRSLASAQCPFLGPPRKRLKQS
B6: SPOP E47A (natural protein)
chain: MSRVPSPPPPAEMSSGPVAESWCYTQIKVVKFSYMWTINNFSFCREAMGEVIKSSTFSSGANDKLKWCLRVNPKGLDEESKDYLSLYLLLVSCPKSEVRAKFKFSILNAKGEETKAMESQRAYRFVQGKDWGFKKFIRRDFLLDEANGLLPDDKLTLFCEVSVVQDSVNISGQNTMNMVKVPECRLADELGGLWENSRFTDCCLCVAGQEFQAHKAILAARSPVFSAMFEHEMEESKKNRVEINDVEPEVFKEMMCFIYTGKAPNLDKMADDLLAAADKYALERLKVMCEDALCSNLSVENAAEILILADLHSADQLKTQAVDFINYHASDVLETSGWKSMVVSHPHLVAEAYRSLASAQCPFLGPPRKRLKQS
B7: SPOP W131L (natural protein)
chain: MSRVPSPPPPAEMSSGPVAESWCYTQIKVVKFSYMWTINNFSFCREEMGEVIKSSTFSSGANDKLKWCLRVNPKGLDEESKDYLSLYLLLVSCPKSEVRAKFKFSILNAKGEETKAMESQRAYRFVQGKDLGFKKFIRRDFLLDEANGLLPDDKLTLFCEVSVVQDSVNISGQNTMNMVKVPECRLADELGGLWENSRFTDCCLCVAGQEFQAHKAILAARSPVFSAMFEHEMEESKKNRVEINDVEPEVFKEMMCFIYTGKAPNLDKMADDLLAAADKYALERLKVMCEDALCSNLSVENAAEILILADLHSADQLKTQAVDFINYHASDVLETSGWKSMVVSHPHLVAEAYRSLASAQCPFLGPPRKRLKQS
B8: SPOP E50K (natural protein)
chain: MSRVPSPPPPAEMSSGPVAESWCYTQIKVVKFSYMWTINNFSFCREEMGKVIKSSTFSSGANDKLKWCLRVNPKGLDEESKDYLSLYLLLVSCPKSEVRAKFKFSILNAKGEETKAMESQRAYRFVQGKDWGFKKFIRRDFLLDEANGLLPDDKLTLFCEVSVVQDSVNISGQNTMNMVKVPECRLADELGGLWENSRFTDCCLCVAGQEFQAHKAILAARSPVFSAMFEHEMEESKKNRVEINDVEPEVFKEMMCFIYTGKAPNLDKMADDLLAAADKYALERLKVMCEDALCSNLSVENAAEILILADLHSADQLKTQAVDFINYHASDVLETSGWKSMVVSHPHLVAEAYRSLASAQCPFLGPPRKRLKQS
B9: SPOP R45W (natural protein)
chain: MSRVPSPPPPAEMSSGPVAESWCYTQIKVVKFSYMWTINNFSFCWEEMGEVIKSSTFSSGANDKLKWCLRVNPKGLDEESKDYLSLYLLLVSCPKSEVRAKFKFSILNAKGEETKAMESQRAYRFVQGKDWGFKKFIRRDFLLDEANGLLPDDKLTLFCEVSVVQDSVNISGQNTMNMVKVPECRLADELGGLWENSRFTDCCLCVAGQEFQAHKAILAARSPVFSAMFEHEMEESKKNRVEINDVEPEVFKEMMCFIYTGKAPNLDKMADDLLAAADKYALERLKVMCEDALCSNLSVENAAEILILADLHSADQLKTQAVDFINYHASDVLETSGWKSMVVSHPHLVAEAYRSLASAQCPFLGPPRKRLKQS
B10: SPOP E47K, full-length (natural protein)
chain: MSRVPSPPPPAEMSSGPVAESWCYTQIKVVKFSYMWTINNFSFCREKMGEVIKSSTFSSGANDKLKWCLRVNPKGLDEESKDYLSLYLLLVSCPKSEVRAKFKFSILNAKGEETKAMESQRAYRFVQGKDWGFKKFIRRDFLLDEANGLLPDDKLTLFCEVSVVQDSVNISGQNTMNMVKVPECRLADELGGLWENSRFTDCCLCVAGQEFQAHKAILAARSPVFSAMFEHEMEESKKNRVEINDVEPEVFKEMMCFIYTGKAPNLDKMADDLLAAADKYALERLKVMCEDALCSNLSVENAAEILILADLHSADQLKTQAVDFINYHASDVLETSGWKSMVVSHPHLVAEAYRSLASAQCPFLGPPRKRLKQS
B11: SPOP D130E (natural protein)
chain: MSRVPSPPPPAEMSSGPVAESWCYTQIKVVKFSYMWTINNFSFCREEMGEVIKSSTFSSGANDKLKWCLRVNPKGLDEESKDYLSLYLLLVSCPKSEVRAKFKFSILNAKGEETKAMESQRAYRFVQGKEWGFKKFIRRDFLLDEANGLLPDDKLTLFCEVSVVQDSVNISGQNTMNMVKVPECRLADELGGLWENSRFTDCCLCVAGQEFQAHKAILAARSPVFSAMFEHEMEESKKNRVEINDVEPEVFKEMMCFIYTGKAPNLDKMADDLLAAADKYALERLKVMCEDALCSNLSVENAAEILILADLHSADQLKTQAVDFINYHASDVLETSGWKSMVVSHPHLVAEAYRSLASAQCPFLGPPRKRLKQS
B12: SPOP W131G (natural protein)
chain: MSRVPSPPPPAEMSSGPVAESWCYTQIKVVKFSYMWTINNFSFCREEMGEVIKSSTFSSGANDKLKWCLRVNPKGLDEESKDYLSLYLLLVSCPKSEVRAKFKFSILNAKGEETKAMESQRAYRFVQGKDGGFKKFIRRDFLLDEANGLLPDDKLTLFCEVSVVQDSVNISGQNTMNMVKVPECRLADELGGLWENSRFTDCCLCVAGQEFQAHKAILAARSPVFSAMFEHEMEESKKNRVEINDVEPEVFKEMMCFIYTGKAPNLDKMADDLLAAADKYALERLKVMCEDALCSNLSVENAAEILILADLHSADQLKTQAVDFINYHASDVLETSGWKSMVVSHPHLVAEAYRSLASAQCPFLGPPRKRLKQS
B13: SPOP E78K, full-length (natural protein)
chain: MSRVPSPPPPAEMSSGPVAESWCYTQIKVVKFSYMWTINNFSFCREEMGEVIKSSTFSSGANDKLKWCLRVNPKGLDKESKDYLSLYLLLVSCPKSEVRAKFKFSILNAKGEETKAMESQRAYRFVQGKDWGFKKFIRRDFLLDEANGLLPDDKLTLFCEVSVVQDSVNISGQNTMNMVKVPECRLADELGGLWENSRFTDCCLCVAGQEFQAHKAILAARSPVFSAMFEHEMEESKKNRVEINDVEPEVFKEMMCFIYTGKAPNLDKMADDLLAAADKYALERLKVMCEDALCSNLSVENAAEILILADLHSADQLKTQAVDFINYHASDVLETSGWKSMVVSHPHLVAEAYRSLASAQCPFLGPPRKRLKQS
B14: SPOP V51E, full-length (natural protein)
chain: MSRVPSPPPPAEMSSGPVAESWCYTQIKVVKFSYMWTINNFSFCREEMGEEIKSSTFSSGANDKLKWCLRVNPKGLDEESKDYLSLYLLLVSCPKSEVRAKFKFSILNAKGEETKAMESQRAYRFVQGKDWGFKKFIRRDFLLDEANGLLPDDKLTLFCEVSVVQDSVNISGQNTMNMVKVPECRLADELGGLWENSRFTDCCLCVAGQEFQAHKAILAARSPVFSAMFEHEMEESKKNRVEINDVEPEVFKEMMCFIYTGKAPNLDKMADDLLAAADKYALERLKVMCEDALCSNLSVENAAEILILADLHSADQLKTQAVDFINYHASDVLETSGWKSMVVSHPHLVAEAYRSLASAQCPFLGPPRKRLKQS

14 proteins from publication PMC12262686 (bioRxiv, 2025) can be followed below.

This data set deals with the molecule itself. In words: negative-stain TEM.
For the protein B1, the binding result is given as “binds”.

For the protein B2, the binding result is “binds”.

In the case of B3, the binding result is recorded as “binds”.

With B4, the binding result is recorded as “binds”.

Consider B5, for which the binding result is “binds”.

With B6, the binding result is recorded as “binds”.

For B7, the binding result was “binds”.

With B8, the binding result is reported as “binds”.

For the protein B9, the binding result is “binds”.

Turning to B10, the binding result is given as “binds”.

For B11, the binding result is “binds”.

For the protein B12, the binding result is recorded as “binds”.

Turning to B13, the binding result was “binds”.

Turning to B14, the binding result was “binds”.
